We go through one molecule from patent publication US20240327522A1 (Genentech, published 2024).

In assay [1] the target is T1, recombinant mouse αvβ8 protein (PARS-17103) (murine, UniProt P43406 31-988; Q0VBD0 43-681, limits assumed).
T1 construct: Made in house; also called mu.aVb8.17103
As to the kind of experiment: SPR binding assay, experiment 2, antibody as ligand, aVb8 as sample.

In a further assay the target is T2, cyno.aVb8.13650 (cynomolgus, UniProt A0A2K5WCD3 31-992; G7P0S0 43-684).
T2 construct: Carries another lot/construct number than cyno.aVb8-19393; kept apart; also called cynomolgus αvβ8
Described as above.

The target in assay [2] is T3, recombinant human αvβ8 protein (PARS-17102) (human).
T3 construct: also called hu.aVb8.17102; not shown: C-terminal acid/basic coils and any purification tags
T3 alpha: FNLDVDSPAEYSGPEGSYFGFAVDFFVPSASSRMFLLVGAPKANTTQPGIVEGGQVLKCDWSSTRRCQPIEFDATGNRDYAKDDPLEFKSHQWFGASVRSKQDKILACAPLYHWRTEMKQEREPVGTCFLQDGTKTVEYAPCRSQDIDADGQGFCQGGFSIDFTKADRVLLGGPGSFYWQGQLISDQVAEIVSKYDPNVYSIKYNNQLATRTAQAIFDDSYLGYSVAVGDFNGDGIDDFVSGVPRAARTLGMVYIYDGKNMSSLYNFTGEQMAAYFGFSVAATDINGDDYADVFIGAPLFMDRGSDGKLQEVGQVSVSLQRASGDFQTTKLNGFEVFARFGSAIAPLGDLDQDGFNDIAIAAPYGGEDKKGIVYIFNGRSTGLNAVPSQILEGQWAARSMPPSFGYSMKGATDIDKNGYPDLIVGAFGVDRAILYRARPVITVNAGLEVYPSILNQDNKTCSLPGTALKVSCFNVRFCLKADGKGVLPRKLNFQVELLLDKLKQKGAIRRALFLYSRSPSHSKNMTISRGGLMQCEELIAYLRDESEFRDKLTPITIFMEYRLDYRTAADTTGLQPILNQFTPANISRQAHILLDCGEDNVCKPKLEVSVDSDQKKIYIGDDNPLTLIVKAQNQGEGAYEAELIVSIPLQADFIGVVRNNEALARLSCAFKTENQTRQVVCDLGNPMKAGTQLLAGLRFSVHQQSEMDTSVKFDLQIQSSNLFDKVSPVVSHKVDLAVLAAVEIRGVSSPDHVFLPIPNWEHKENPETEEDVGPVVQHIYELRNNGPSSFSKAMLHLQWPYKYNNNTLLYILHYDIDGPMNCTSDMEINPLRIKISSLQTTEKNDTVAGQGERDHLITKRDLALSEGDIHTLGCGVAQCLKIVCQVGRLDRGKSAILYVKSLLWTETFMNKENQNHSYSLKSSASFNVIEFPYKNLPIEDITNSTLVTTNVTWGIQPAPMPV
T3 beta: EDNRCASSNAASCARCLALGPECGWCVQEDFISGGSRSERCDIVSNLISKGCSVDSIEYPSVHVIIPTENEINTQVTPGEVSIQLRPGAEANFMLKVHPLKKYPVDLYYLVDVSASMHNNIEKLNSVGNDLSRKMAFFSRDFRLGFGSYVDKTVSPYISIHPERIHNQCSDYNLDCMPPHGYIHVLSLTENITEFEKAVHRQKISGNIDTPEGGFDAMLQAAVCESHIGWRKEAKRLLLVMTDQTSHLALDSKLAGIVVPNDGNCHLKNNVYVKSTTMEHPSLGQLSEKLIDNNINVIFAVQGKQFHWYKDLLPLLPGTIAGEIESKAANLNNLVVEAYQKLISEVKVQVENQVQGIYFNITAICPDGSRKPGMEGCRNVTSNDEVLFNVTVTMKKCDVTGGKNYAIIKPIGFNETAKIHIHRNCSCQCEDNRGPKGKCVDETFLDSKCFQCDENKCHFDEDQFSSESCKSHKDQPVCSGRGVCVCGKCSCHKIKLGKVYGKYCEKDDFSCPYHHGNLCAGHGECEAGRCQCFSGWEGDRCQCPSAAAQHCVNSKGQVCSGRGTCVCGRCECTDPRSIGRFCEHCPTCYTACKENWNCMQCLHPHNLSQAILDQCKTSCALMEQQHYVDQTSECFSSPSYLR
Described as above.

Assay [3] has as its target T3, recombinant human αvβ8 protein …. As to the kind of experiment: SPR, Biacore T200, Protein A capture, human αvβ8 analyte 0-100 nM, 37 C, 1:1 model (comparison with hADWA11-2.4, FIG. 9B). The protocol:
The antibodies were first captured either on a Biacore™ Protein A biosensor chip (Cytiva Life Sciences) or on an anti-murine Fc chip to achieve approximately 60 response units. Binding measurements were performed using a running buffer composed of 10 mM HEPES (pH 7.4), 150 mM NaCl, 0.5 mM CaCl₂), and 0.005% Surfactant P20 (Cytiva Life Sciences). For comparison between αvβ8-65 and hC6D4, a 5-fold dilution series of human αvβ8 (range, 0-100 nM in running buffer) was injected into the Biacore™ T200. For comparison between αvβ8-65 and hADWA11-2.4, a 5-fold dilution series of human αvβ8 (range, 0-100 nM in running buffer) was injected. For comparison of all three antibodies in the murine Fc format, a 5-fold dilution series of human αvβ8 (range, 0-50 nM in running buffer) was injected. All injections were performed over 180 seconds, with a dissociation time of 1200 seconds, at a flow rate of 100 μL/minute and a temperature of 37° C. Between sample injections, a regeneration reagent (10 mM glycine pH 1.5 for protein A chip; 10 mM glycine pH 1.7 for anti-murine Fc chip) was injected to regenerate the sensor chip (twice, over 30 seconds at 10 μL/minute for each injection). To determine the binding kinetics and affinity constants of the antibodies to human αvβ8 protein, the signal from the reference flow cell (FC1, with only protein A on the surface) was “double referenced” by subtracting the signal observed after injecting the sample over FC1, followed by subtracting the signal observed after injecting only running buffer. The kinetic constants were calculated using nonlinear regression fitting of the data, according to a 1:1 Langmuir binding model, using Biacore™ Evaluation Software (Cytiva Life Sciences).
The values of the kinetic constants kon, koff, and KD for the binding of αvβ8-65, hC6D4 and ADWA11-2.4 to the various species of αvβ8 proteins are summarized in Table 13. A 1:1 Langmuir binding model was used to determine the KD values. The sensograms observed for the bindings of the various αvβ8 proteins to the captured antibody are shown in FIG. 9A, FIG. 9B, and FIG. 10.
A general note: In SPR one partner is held on a chip, and binding of the other changes the refractive index at the surface.

T1 sequence (P43406 31-988 limits assumed, chain 1 of 2): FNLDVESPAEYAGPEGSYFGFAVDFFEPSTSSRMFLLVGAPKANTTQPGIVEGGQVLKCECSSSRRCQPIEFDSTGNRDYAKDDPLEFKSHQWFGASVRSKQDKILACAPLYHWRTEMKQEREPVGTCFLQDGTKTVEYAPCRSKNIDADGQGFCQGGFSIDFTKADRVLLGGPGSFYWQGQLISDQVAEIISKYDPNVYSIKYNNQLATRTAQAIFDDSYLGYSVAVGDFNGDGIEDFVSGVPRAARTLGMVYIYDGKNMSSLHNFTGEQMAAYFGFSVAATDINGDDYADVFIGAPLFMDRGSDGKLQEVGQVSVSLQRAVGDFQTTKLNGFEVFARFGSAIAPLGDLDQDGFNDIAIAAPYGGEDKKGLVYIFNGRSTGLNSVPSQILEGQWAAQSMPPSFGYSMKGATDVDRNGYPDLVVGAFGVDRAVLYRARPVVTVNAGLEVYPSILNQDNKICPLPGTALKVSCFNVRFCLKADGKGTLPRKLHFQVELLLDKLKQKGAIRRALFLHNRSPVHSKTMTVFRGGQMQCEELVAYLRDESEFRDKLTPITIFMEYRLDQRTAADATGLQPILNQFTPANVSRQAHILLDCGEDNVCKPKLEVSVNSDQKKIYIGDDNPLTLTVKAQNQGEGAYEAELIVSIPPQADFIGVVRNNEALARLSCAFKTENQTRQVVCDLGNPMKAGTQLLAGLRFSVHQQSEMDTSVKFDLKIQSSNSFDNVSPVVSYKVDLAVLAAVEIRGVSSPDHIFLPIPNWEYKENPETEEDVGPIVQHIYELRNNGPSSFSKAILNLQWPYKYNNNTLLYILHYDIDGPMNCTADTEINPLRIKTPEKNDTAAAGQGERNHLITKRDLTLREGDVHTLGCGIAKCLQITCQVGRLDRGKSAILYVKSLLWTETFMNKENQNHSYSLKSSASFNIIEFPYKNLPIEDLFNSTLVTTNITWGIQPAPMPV
T1 sequence (Q0VBD0 43-681 limits assumed, chain 2 of 2): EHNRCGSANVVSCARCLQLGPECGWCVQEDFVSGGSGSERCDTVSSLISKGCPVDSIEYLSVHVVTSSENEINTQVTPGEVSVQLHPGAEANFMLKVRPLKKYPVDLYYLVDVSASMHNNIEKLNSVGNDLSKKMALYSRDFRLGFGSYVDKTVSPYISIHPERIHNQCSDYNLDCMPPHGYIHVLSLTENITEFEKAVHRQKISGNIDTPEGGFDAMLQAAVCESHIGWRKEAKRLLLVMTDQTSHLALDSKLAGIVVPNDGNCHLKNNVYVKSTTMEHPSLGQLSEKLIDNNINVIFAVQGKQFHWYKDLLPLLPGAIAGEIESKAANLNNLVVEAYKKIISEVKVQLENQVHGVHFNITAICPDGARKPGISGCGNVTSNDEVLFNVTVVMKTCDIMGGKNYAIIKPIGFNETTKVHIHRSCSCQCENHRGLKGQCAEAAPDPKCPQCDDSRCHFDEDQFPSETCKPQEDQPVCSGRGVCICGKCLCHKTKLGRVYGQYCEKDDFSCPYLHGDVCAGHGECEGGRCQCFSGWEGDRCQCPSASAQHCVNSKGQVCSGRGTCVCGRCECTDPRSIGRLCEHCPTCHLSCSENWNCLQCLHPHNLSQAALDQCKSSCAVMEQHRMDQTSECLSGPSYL

B1: Hu.aVb8-65.H15L2 (aVb8-65.H15L2.hIgG1.LALAPG) (antibody, V domains shown)
VH: EVQLLESGGGLVQPGGSLRLSCAASGIDLSNYAMIWVRQAPGKGLEWVGIISSSDRIWYASWVKGRFTISRDNSKNTLYLQMNSLRAEDTAVYYCSRSVSNSYFDGWNLWGQGTLVTVSS
VL: DIQMTQSPSSVSASVGDRVTITCQASENINSLLAWYQQKPGKAPKLLIYRASTLASGVPSRFSGSGSGTDFTLTISSLQPEDFATYYCQSNYGFTGSGAFFYGFGQGTKVEIKR
notes: Human IgG1 LALAPG; also called PARS-20475-65 (IH) aVb8-65.H15L2.hIgG1.LALAPG; humanized αvβ8-65
On to B1, for which the Kd (commonly the equilibrium constant for the complex coming apart) in assay [1] came out at 1.23 nM; with cyno.aVb8.13650, 2.41 nM; in assay [2], 1.04 nM; in assay [3] it was 0.528 nM. Besides, the koff (usually a measure of how fast the partners let go of each other) in assay [1] came out at 0.000152 s⁻¹; with cyno.aVb8.13650 it was 0.000151 s⁻¹; in assay [2] it was 0.000181 s⁻¹; in assay [3], 9.58e-05 s⁻¹. The kon (usually a measure of how fast the partners come together) turned out to be 123000 M⁻¹ s⁻¹ in assay [1], 62700 M⁻¹ s⁻¹ with cyno.aVb8.13650, 174000 M⁻¹ s⁻¹ in assay [2] and 181000 M⁻¹ s⁻¹ in assay [3].
